Assay results as given in the supplement of paper PMC9170038.

Tests used:
[1] = test system: K4 kissing-loop RNA reporter; assay: apparent KD of K4 kissing-loop reporter; higher = weaker reporter binding; conditions: Eterna round: R107;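 further: bound reporter read as fluorescence of individual clusters on recovered sequencing chips by microscopy, with normalized cluster intensities fitted with a binding model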
Protocol: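 RNA-MaP round R107: designed RNA switches with theophylline, tryptophan, arginine or FMN aptamers are transcribed on-chip within common flanks. They are titrated with a labelled K4 kissing-loop RNA reporter in RNA-MaP buffer (100 mM Tris pH 7.5, 80 mM KCl, 4 mM MgCl2), without ligand or with the indicated ligand. Median apparent KD per design.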

MS2 coat protein = assay: apparent KD of MS2 coat protein; designed switch direction (-1 OFF switch, 1 ON switch): -1; higher = weaker reporter binding
In short: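 Designed RNA switches with common flanks were made on Illumina chips by stalled E. coli RNA polymerase. Titration with SNAP-549-labelled MS2 coat protein doubled from 0.7 or 1.5 nM up to 3 µM. Apparent KD is each design's median over clusters after curve-fitting normalised fluorescence.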

[2] = input ligand: theophylline 20 uM
[3] = input ligand: tryptophan 2.4 mM
[4] = Eterna round: R95, input ligand: FMN 200 uM
[5] = Eterna round: R95, input ligand: microRNA oligo, concentration not stated
[6] = Eterna round: R95, input ligand: none
[7] = input ligand: microRNA oligo, concentration not stated

Sequence: UGUCAUUGGUCGGCCGCCACUAGGACCGGGUAUAGCCUAGUGAUGUUAGUAAGUACGGCCGCCACUAGGACCGGGACCGAUGACU [KL-SSTryp-B21 #DoubleAptamer]
- apparent KD of K4 kissing-loop reporter ([1]; input ligand: FMN 200 uM): 742 nM
- apparent KD of K4 kissing-loop reporter ([1]; input ligand: arginine 13.2 mM): 57 nM
- apparent KD of K4 kissing-loop reporter ([1]; input ligand: none): 591 nM
- apparent KD of K4 kissing-loop reporter [1, 2]: 674 nM
- apparent KD of K4 kissing-loop reporter [1, 3]: 131 nM

Sequence: ACACUAUCGUCAUAGACGGUAGUGAAAUCACAGGAUAUAAGUGAUGUUAGAAGGGUGAAAGACUGUAUCGAAUAGAUACAGUCAA [FmnA 3 #K4BetweenAptamer #OpenEnded]
- apparent KD of K4 kissing-loop reporter ([1]; input ligand: FMN 200 uM): 1140 nM
- apparent KD of K4 kissing-loop reporter ([1]; input ligand: arginine 13.2 mM): 605 nM
- apparent KD of K4 kissing-loop reporter ([1]; input ligand: none): 913 nM
- apparent KD of K4 kissing-loop reporter [1, 2]: 861 nM
- apparent KD of K4 kissing-loop reporter [1, 3]: 878 nM

Sequence: ACCAAUUUACCGGCAGUAGUGAUGUUACUCCGAGGACCGGUACGGCCGCCACUCGCGAACGUAGGGUUUCUGACUCGAAGAGUCU
- apparent KD of K4 kissing-loop reporter ([1]; input ligand: FMN 200 uM): 191 nM
- apparent KD of K4 kissing-loop reporter ([1]; input ligand: arginine 13.2 mM): 127 nM
- apparent KD of K4 kissing-loop reporter ([1]; input ligand: none): 171 nM
- apparent KD of K4 kissing-loop reporter [1, 2]: 149 nM
- apparent KD of K4 kissing-loop reporter [1, 3]: 171 nM

Sequence: AAGGCACGGCUUCGGCCGUGCCAAAUAGAUACCAGCAUAAUAAUAUGCCCUUGGCAGCUAAAUAGAAAUUCAGUGAUGUUGGAUA [SS Theo A Tesla 2.1]
- apparent KD of K4 kissing-loop reporter ([1]; input ligand: FMN 200 uM): 597 nM
- apparent KD of K4 kissing-loop reporter ([1]; input ligand: arginine 13.2 mM): 444 nM
- apparent KD of K4 kissing-loop reporter ([1]; input ligand: none): 601 nM
- apparent KD of K4 kissing-loop reporter [1, 2]: 586 nM
- apparent KD of K4 kissing-loop reporter [1, 3]: 649 nM

Sequence: UUUUUUUACUGAAGGAGCGGCAAUUGAUACGUAGAUAUAGUGAUGUUAUAUAAGAUAGAGAGCCAGGUAGGUCGCAGAUUUUUUU [ExArgB.W]
- apparent KD of K4 kissing-loop reporter ([1]; input ligand: FMN 200 uM): 153 nM
- apparent KD of K4 kissing-loop reporter ([1]; input ligand: arginine 13.2 mM): 171 nM
- apparent KD of K4 kissing-loop reporter ([1]; input ligand: none): 163 nM
- apparent KD of K4 kissing-loop reporter [1, 2]: 167 nM
- apparent KD of K4 kissing-loop reporter [1, 3]: 147 nM

Sequence: AAAUAGAUCAGUCAACCAGUGAUGUUGGAAGGAGCGUGCGAAAGCACAGGUAGGUCGCCAUAAUAAAAUUGGCUGAUCAAAAUAA
- apparent KD of K4 kissing-loop reporter ([1]; input ligand: FMN 200 uM): 340 nM
- apparent KD of K4 kissing-loop reporter ([1]; input ligand: arginine 13.2 mM): 615 nM
- apparent KD of K4 kissing-loop reporter ([1]; input ligand: none): 648 nM
- apparent KD of K4 kissing-loop reporter [1, 2]: 614 nM
- apparent KD of K4 kissing-loop reporter [1, 3]: 344 nM

Sequence: UUUAAAUAUAGUGAUGUUAUAUAACAAUGACGAGGACCGGUACGGCCGCCACUCGAGAGAGAUAAUGGUCUUACAAAUGUAAGUC [AstrosSSTryA#8]
- apparent KD of K4 kissing-loop reporter ([1]; input ligand: FMN 200 uM): 546 nM
- apparent KD of K4 kissing-loop reporter ([1]; input ligand: arginine 13.2 mM): 589 nM
- apparent KD of K4 kissing-loop reporter ([1]; input ligand: none): 852 nM
- apparent KD of K4 kissing-loop reporter [1, 2]: 738 nM
- apparent KD of K4 kissing-loop reporter [1, 3]: 399 nM

Sequence: CGGUGUAGAGGAUAUACGUGGAUGUAAGUUCAUGAUAUUUUACAUGAGGAUCACCCAUGUAGAAGGCUAUAGCG [JR_Ex2_Sub079] (Eterna round: R97, puzzle: Exclusion 2)
- apparent KD of MS2 coat protein (MS2 coat protein; input ligand: FMN 200 uM): 36.2 nM
- apparent KD of MS2 coat protein (MS2 coat protein; input ligand: none): 351 nM

Sequence: AAAGACCUGGAGGAUAUCAGACACACCAGCGUCUGAGAAGGCCAGACAUGAGGAUCACCCAUGUAGGGUUCUCC [EX6 B.22] (Eterna round: R97, puzzle: Exclusion 6)
- apparent KD of MS2 coat protein (MS2 coat protein; input ligand: FMN 200 uM): 104 nM
- apparent KD of MS2 coat protein (MS2 coat protein; input ligand: none): 29.4 nM

Sequence: UUUAUAAUUUCAAUCUUCGCUGGCAAACUUACGCCAGCCACAUGAGGAUCACCCAUGUUUUUUGUUCGUUUUAUUCU [Xeinzarace] (puzzle: Sensor v3, turn-off variant 2)
- apparent KD of MS2 coat protein (MS2 coat protein; [4]): 18.8 nM
- apparent KD of MS2 coat protein (MS2 coat protein; [5]): 49.8 nM
- apparent KD of MS2 coat protein (MS2 coat protein; [6]): 22.6 nM

Sequence: CAUGAUUGGCGAGGAUAUUGAUCUAGUUGGCGACGAGAAGGCGCCUGUCACAUGAGGAUCACCCAUGUGAAUCUGGUGAAAGAG [Ex NG1 #89] (Eterna round: R96, puzzle: Exclusion NG 1)
- apparent KD of MS2 coat protein (MS2 coat protein; input ligand: FMN 200 uM): 24.9 nM
- apparent KD of MS2 coat protein (MS2 coat protein; [7]): 18.5 nM
- apparent KD of MS2 coat protein (MS2 coat protein; input ligand: none): 25.9 nM

Sequence: GGCAUAAUGUAGGAUAUCGUAUUGGAAACAAUACGAGAAGGGCAAACAUGAGGAUCACCCAUGUUCCUUAAGCC [Mat - Exclusion 6 - Eli Mod - D71] (puzzle: Exclusion 6)
- apparent KD of MS2 coat protein (MS2 coat protein; [5]): 15.1 nM

Sequence: CGGUGCUGAGGAUAUACAUGAGGAUCACCCAUGUGUUCCAGCUAGCGUACUGGCGGAUGUAGAAGGCGGUACUG [JL-ex3-3.40 Brourd mod] (puzzle: Exclusion 3)
- apparent KD of MS2 coat protein (MS2 coat protein; [4]): 52.8 nM
- apparent KD of MS2 coat protein (MS2 coat protein; [5]): 13.1 nM
- apparent KD of MS2 coat protein (MS2 coat protein; [6]): 17.7 nM

Sequence: GAAAAGGUAGGAUAUACGAAAAAAGAGGGUAGAAAAAAAACACAUGAGGAUCACCCAUGUAGAAGGACCAAAAG [salish99_ex2_r3_025] (puzzle: Exclusion 2)
- apparent KD of MS2 coat protein (MS2 coat protein; [4]): 60.2 nM
- apparent KD of MS2 coat protein (MS2 coat protein; [5]): 32.1 nM
- apparent KD of MS2 coat protein (MS2 coat protein; [6]): 24.9 nM

Sequence: UUCAUGUGAGGAUAUAGUACUCUUUCUAUUAUUUUUGAGUAUUAGAAGGCACAUGAGGAUCACCCAUGUAGUAC [Ex4 - 3 - 42] (puzzle: Exclusion 4)
- apparent KD of MS2 coat protein (MS2 coat protein; [5]): 40.8 nM

Sequence: CUUGUCCGAGGAUAUAUUAUGUGAUACAUGAGGAUCACCCAUGUUAUAUGAUGGAUAUAAAUAGAAGGCGGACGAG [Mat - Exclusion 5 - JL mod - D68] (puzzle: Exclusion 5)
- apparent KD of MS2 coat protein (MS2 coat protein; [4]): 70.2 nM
- apparent KD of MS2 coat protein (MS2 coat protein; [5]): 46.7 nM
- apparent KD of MS2 coat protein (MS2 coat protein; [6]): 47.3 nM

Sequence: AGUAGGUCUACCUUGGUGGAUCUGCAUUUAUGCAGGUGUACAUGAGGAUCACCCAUGUCCUCAUUUGCUCGUCUUAU [JL turnoff v2 99.27] (puzzle: Sensor v3, turn-off variant 2)
- apparent KD of MS2 coat protein (MS2 coat protein; [4]): 400 nM
- apparent KD of MS2 coat protein (MS2 coat protein; [5]): 501 nM
- apparent KD of MS2 coat protein (MS2 coat protein; [6]): 349 nM

Sequence: GCUAGAGCAGGAUAUCUAGAUCCACACAUGAGGAUCACCCAUGUAUAGUCGAAAGACUAAAGAGAAGGGCUCUAGC [Omei Ex5 E14] (Eterna round: R97, puzzle: Exclusion 5)
- apparent KD of MS2 coat protein (MS2 coat protein; input ligand: FMN 200 uM): 72.7 nM
- apparent KD of MS2 coat protein (MS2 coat protein; input ligand: none): 61.8 nM

Sequence: AGUACUUACACGAAAGUGUAAGUACAAUAAGCUUGUGGAACAUGAGGAUCACCCAUGUCCUCAUAAGCUCGUCUUAU [Mat - Sensor v3 - Turn-off var 2 - D28] (puzzle: Sensor v3, turn-off variant 2)
- apparent KD of MS2 coat protein (MS2 coat protein; [4]): 14.5 nM
- apparent KD of MS2 coat protein (MS2 coat protein; [5]): 75.2 nM
- apparent KD of MS2 coat protein (MS2 coat protein; [6]): 14.3 nM

Sequence: GGUGCGUAUGUGAGGAUAUGCUGGUCCUUGGAUCAGCAGAAGGCACAUGAGGAUCACCCAUGUGGUGUCGUACC [JL bmx4 3.46] (puzzle: Brourd's mod of Exclusion 4)
- apparent KD of MS2 coat protein (MS2 coat protein; [5]): 149 nM

Sequence: AUAGAGUCAGGAUAUACAGGUGGAGGAGAGCAGCGUAAGGAGUAGAAGGGACAUGAGGAUCACCCAUGUAAGUG [JR_Exclu4_Sub060] (puzzle: Exclusion 4)
- apparent KD of MS2 coat protein (MS2 coat protein; [4]): 52.5 nM
- apparent KD of MS2 coat protein (MS2 coat protein; [5]): 55.1 nM
- apparent KD of MS2 coat protein (MS2 coat protein; [6]): 81.2 nM

Sequence: AGAUCUAGGACAGGAUAUACAGAUGGCUUCAUCGAAGAUGAAGCCAUCACAUGAGGAUCACCCAUGUAGAAGGGUCCUAGAUCA [Omei Exc(NG) 2Av4] (Eterna round: R96, puzzle: Exclusion NG 2)
- apparent KD of MS2 coat protein (MS2 coat protein; input ligand: FMN 200 uM): 19.2 nM
- apparent KD of MS2 coat protein (MS2 coat protein; [7]): 9.47 nM
- apparent KD of MS2 coat protein (MS2 coat protein; input ligand: none): 13.2 nM
